According to patent US20250223358A1 (ANTENGENE BIOLOGICS, published 2025):
Positions count from the first letter of the chain named. In names and notes the source's numbering stands.

B1: hu40E9-L2H3-D105R.H (antibody, V domains shown)
VH: EVQLVQSGAEVKKPGSSVKVSCKASGYTFSSYVIHWVRQAPGQGLEWMGYINPYNDVIKYNEKFKGRVTLTSDKSTSTAYMELSSLRSEDTAVYYCARDSYYSYRGFAYWGQGTLVTVSS
VL: EIVLTQSPDFQSVTPKEKVTITCSASSSVSYMHWYQQKPDQSPKRLIYDTSKLASGVPSRFSGSGSGTDFTLTINSLEAEDAATYYCQQWSSNPPTFGGGTKVEIK
B2: hu40E9-L2H3-Y101F.H (antibody, V domains shown)
VH: B1 VH with Y101F, R105D
VL: B1 VL
B3: hu40E9-L2H3-N93W.L (antibody, V domains shown)
VH: B1 VH with R105D
VL: B1 VL with N93W
B4: hu40E9-L2H3-N93S.L (antibody, V domains shown)
VH: B1 VH with R105D
VL: B1 VL with N93S
B5: hu40E9-L2H3-N55S.H (antibody, V domains shown)
VH: B1 VH with N55S, R105D
VL: B1 VL
B6: hu40E9-L2H3-Y54G.H (antibody, V domains shown)
VH: B1 VH with Y54G, R105D
VL: B1 VL
B7: hu40E9-L2H3-Y102S.H (antibody, V domains shown)
VH: B1 VH with Y102S, R105D
VL: B1 VL
B8: hu40E9-L3H1 (antibody, V domains shown)
VH: B1 VH with Y27G, L70I, S72A, R105D
VL: B1 VL with L46W, F70Y
notes: humanized 40-C12-C10-E9
B9: hu40E9-L2H3-S91R.L (antibody, V domains shown)
VH: B1 VH with R105D
VL: B1 VL with S91R
B10: hu40E9-L2H3-N93R.L (antibody, V domains shown)
VH: B1 VH with R105D
VL: B1 VL with N93R
B11: hu40E9-L2H4 (antibody, V domains shown)
VH: B1 VH with M48I, V68A, R105D
VL: B1 VL
notes: humanized 40-C12-C10-E9
B12: hu40E9-L3H4 (antibody, V domains shown)
VH: B1 VH with M48I, V68A, R105D
VL: B1 VL with L46W, F70Y
notes: humanized 40-C12-C10-E9
B13: hu40E9-L2H3-G106A.H (antibody, V domains shown)
VH: B1 VH with R105D, G106A
VL: B1 VL
B14: hu40E9-L3H2 (antibody, V domains shown)
VH: B1 VH with L70I, S72A, R105D
VL: B1 VL with L46W, F70Y
notes: humanized 40-C12-C10-E9
B15: hu40E9-L2H10 (antibody, V domains shown)
VH: B1 VH with R105E, G106A
VL: B1 VL
B16: hu40E9-L2H9 (antibody, V domains shown)
VH: B1 VH with N55S, D99E, Y101F, R105D
VL: B1 VL
B17: hu40E9-L2H5 (antibody, V domains shown)
VH: B1 VH with Y54G, N55S, D56G, R105D
VL: B1 VL
B18: hu40E9-L2H12 (antibody, V domains shown)
VH: B1 VH with S100D, R105D
VL: B1 VL
B19: hu40E9-L2H11 (antibody, V domains shown)
VH: B1 VH with G106A
VL: B1 VL
B20: hu40E9-L2H7 (antibody, V domains shown)
VH: B1 VH with Y54G, D56G, Y102S, R105D
VL: B1 VL
B21: hu40E9-L2H13 (antibody, V domains shown)
VH: B1 VH with S100G, R105D
VL: B1 VL
B22: hu40E9-L2H6 (antibody, V domains shown)
VH: B1 VH with D99E, Y101F, Y102S, R105D
VL: B1 VL
B23: hu40E9-L2H8 (antibody, V domains shown)
VH: B1 VH with Y54G, D99E, Y102S, R105D
VL: B1 VL

molecular target: T1, human CD3 (human, UniProt P07766 23-207; P04234 22-171; P09693 23-182); assay: FACS on Jurkat cells
T1 construct: whole, on cells; also called hCD3; CD3 on Jurkat cells
T1 sequence (P07766 23-207, chain 1 of 3): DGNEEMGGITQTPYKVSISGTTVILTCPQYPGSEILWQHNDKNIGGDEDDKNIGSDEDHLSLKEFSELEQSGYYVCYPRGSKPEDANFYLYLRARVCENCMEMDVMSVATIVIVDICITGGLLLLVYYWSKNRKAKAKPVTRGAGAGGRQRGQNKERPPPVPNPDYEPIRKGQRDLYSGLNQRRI
T1 sequence (P04234 22-171, chain 2 of 3): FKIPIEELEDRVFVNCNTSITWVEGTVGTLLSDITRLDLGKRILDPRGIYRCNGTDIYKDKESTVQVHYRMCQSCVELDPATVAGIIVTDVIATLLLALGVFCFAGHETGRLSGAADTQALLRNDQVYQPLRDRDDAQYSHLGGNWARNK
T1 sequence (P09693 23-182, chain 3 of 3): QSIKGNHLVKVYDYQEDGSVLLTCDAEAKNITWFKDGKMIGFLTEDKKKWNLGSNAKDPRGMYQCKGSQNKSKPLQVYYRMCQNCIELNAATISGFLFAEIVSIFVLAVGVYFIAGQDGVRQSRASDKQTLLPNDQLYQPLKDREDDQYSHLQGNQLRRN

Row | Binder | EC50 | Top FACS signal
1 | B1 | 560 pM | 1480
2 | B2 | 640 pM | 1190
3 | B3 | 510 pM | 1210
4 | B4 | 600 pM | 1360
5 | B5 | 510 pM | 1160
6 | B6 | 510 pM | 1190
7 | B7 | 470 pM | 1160
8 | B8 | 750 pM | 1250
9 | B9 | 320 pM | 1360
10 | B10 | 630 pM | 1420
11 | B11 | 860 pM | 1570
12 | B12 | 490 pM | 1360
13 | B13 | 2390 pM | 771
14 | B14 | 520 pM | 1410

molecular target: T1, human CD3; assay: FACS on Jurkat cells; remark: another data set of the same source

Row | Binder | EC50 | Top FACS signal
15 | B15 | 2550 pM | 1680
16 | B16 | 560 pM | 1760
17 | B17 | 360 pM | 1920
18 | B18 | 72900 pM | 850
19 | B19 | 5000 pM | 2000
20 | B20 | 660 pM | 2380
21 | B21 | 83700 pM | 2050
22 | B22 | 4170 pM | 1260
23 | B23 | 28000 pM | 1240

molecular target: T1, human CD3; assay: cell-based or functional assay

Row | Binder | EC50_Fold change (Jurkat-NFAT-luciferase activation, normalized to ch40-C12-C10-E9) | Top FACS signal_Fold change (Jurkat-NFAT-luciferase activation, normalized to ch40-C12-C10-E9)
24 | B1 | 1.95 fold | 0.81 fold
25 | B2 | 1.23 fold | 0.94 fold
26 | B3 | 0.72 fold | 0.88 fold
27 | B4 | 0.74 fold | 0.87 fold
28 | B5 | 1.35 fold | 1.03 fold
29 | B6 | 1.06 fold | 0.94 fold
30 | B7 | 0.87 fold | 0.96 fold
31 | B8 | 1.33 fold | 0.97 fold
32 | B9 | 0.79 fold | 0.95 fold
33 | B10 | 0.81 fold | 1.07 fold
34 | B11 | 0.8 fold | 0.89 fold
35 | B12 | 0.61 fold | 0.64 fold
36 | B13 | 4.95 fold | 0.99 fold
37 | B14 | 0.57 fold | 0.73 fold

molecular target: T1, human CD3; assay: cell-based or functional assay; remark: another data set of the same source

Row | Binder | EC50_Fold change (Jurkat-NFAT-luciferase activation, normalized to ch40-C12-C10-E9) | Top signal_Fold change (Jurkat-NFAT-luciferase activation, normalized to ch40-C12-C10-E9)
38 | B15 | 12.6 fold | 1.01 fold
39 | B16 | 2.49 fold | 0.87 fold
40 | B17 | 1.29 fold | 0.79 fold
41 | B18 | 21.3 fold | 0.73 fold
42 | B19 | 2.97 fold | 0.85 fold
43 | B20 | 1.18 fold | 0.77 fold
44 | B21 | 3.08 fold | 0.51 fold
45 | B22 | 4.57 fold | 0.74 fold
46 | B23 | 18.4 fold | 0.69 fold
